Assay results as given in US20200165325A1.

Key:
[1] = molecular target: HIV-1 Env of strain C3347.c11 (HIV-1)
[2] = molecular target: HIV-1 Env of strain 703357.C02 (HIV-1)
[3] = molecular target: HIV-1 Env of strain Ce2060_G9 (HIV-1)
[4] = molecular target: HIV-1 Env of strain T251-18 (HIV-1)
[5] = molecular target: HIV-1 Env of strain 6540.v4.c1 (HIV-1)
[6] = molecular target: HIV-1 Env of strain 231966.c02 (HIV-1)
[7] = molecular target: HIV-1 Env of strain T250-4 (HIV-1)
[8] = molecular target: HIV-1 Env of strain 62357_14_D3_4589 (HIV-1)
[9] = molecular target: HIV-1 Env of strain ZM233M.PB6 (HIV-1)
[10] = molecular target: HIV-1 Env of strain ZM249M.PL1 (HIV-1)
[11] = molecular target: HIV-1 Env of strain 3016.v5.c45 (HIV-1)
[12] = molecular target: HIV-1 Env of strain Q769.d22 (HIV-1)
[13] = molecular target: HIV-1 Env of strain 3301.v1.c24 (HIV-1)
[14] = molecular target: HIV-1 Env of strain QH0692.42 (HIV-1)
[15] = molecular target: HIV-1 Env of strain X2131_C1_B5 (HIV-1)
[16] = molecular target: HIV-1 Env of strain Ce1176_A3 (HIV-1)
[17] = molecular target: HIV-1 Env of strain Q259.d2.17 (HIV-1)

## NIH45-46 IgG (wild type) (antibody)
[1]
  In vitro neutralization IC80: 0.094 µg/mL
[2]
  In vitro neutralization IC80: > 50 µg/mL
[3]
  In vitro neutralization IC80: 0.29 µg/mL
[4]
  In vitro neutralization IC80: 3.68 µg/mL
[5]
  In vitro neutralization IC80: > 50 µg/mL
[6]
  In vitro neutralization IC80: 9.64 µg/mL
[7]
  In vitro neutralization IC80: > 50 µg/mL
[8]
  In vitro neutralization IC80: 0.19 µg/mL
[9]
  In vitro neutralization IC80: 14.2 µg/mL
[10]
  In vitro neutralization IC80: 0.053 µg/mL
[11]
  In vitro neutralization IC80: > 50 µg/mL
[12]
  In vitro neutralization IC80: 0.033 µg/mL
[13]
  In vitro neutralization IC80: 0.033 µg/mL
[14]
  In vitro neutralization IC80: 1.71 µg/mL
[15]
  In vitro neutralization IC80: 0.88 µg/mL
[16]
  In vitro neutralization IC80: 3.17 µg/mL
[17]
  In vitro neutralization IC80: 0.154 µg/mL
